Paper PMC4966588

Biological target: gp41 of HIV-1 NL4.3 viral particles (HIV-1 NL4.3)

Molecule	cytosolic viral p24 (ELISA) in primary CD4+ T cells pretreated with AAT and infected with HIV-1 NL4.3 Gag-iGFP [% decrease]	entry of HIV-1 NL4.3 Gag-iGFP into primary CD4+ T cells pretreated with AAT (0.5 g/L), GFP by flow cytometry, against untreated cells [% decrease]	cytosolic viral p24 (ELISA) in primary CD4+ T cells pretreated with C and infected with HIV-1 NL4.3 Gag-iGFP, against cells pretreated with AAT [% decrease]	entry of HIV-1 NL4.3 Gag-iGFP into primary CD4+ T cells pretreated with C (0.05 g/L), GFP by flow cytometry, against cells pretreated with AAT [% decrease]
alpha-1-antitrypsin (from UniProt P01009 25-418) (natural protein)	> 60	> 60	–	–
KGTEAAGAMFLEAIPMSIPPEVKFNKPFVFLMIDQNTKSP [synthesized C-terminus fragment of AAT]	–	–	> 50	> 50
